Source: publication PMC4230784 (Molecular Biology of the Cell, 2014)

Biological target: flag-TBC1D9B, full length, wild type (human, UniProt Q66K14-1 1-1250)
Assay: co-IP

Chain of flag-TBC1D9B, full length, wild type (Q66K14 whole entry): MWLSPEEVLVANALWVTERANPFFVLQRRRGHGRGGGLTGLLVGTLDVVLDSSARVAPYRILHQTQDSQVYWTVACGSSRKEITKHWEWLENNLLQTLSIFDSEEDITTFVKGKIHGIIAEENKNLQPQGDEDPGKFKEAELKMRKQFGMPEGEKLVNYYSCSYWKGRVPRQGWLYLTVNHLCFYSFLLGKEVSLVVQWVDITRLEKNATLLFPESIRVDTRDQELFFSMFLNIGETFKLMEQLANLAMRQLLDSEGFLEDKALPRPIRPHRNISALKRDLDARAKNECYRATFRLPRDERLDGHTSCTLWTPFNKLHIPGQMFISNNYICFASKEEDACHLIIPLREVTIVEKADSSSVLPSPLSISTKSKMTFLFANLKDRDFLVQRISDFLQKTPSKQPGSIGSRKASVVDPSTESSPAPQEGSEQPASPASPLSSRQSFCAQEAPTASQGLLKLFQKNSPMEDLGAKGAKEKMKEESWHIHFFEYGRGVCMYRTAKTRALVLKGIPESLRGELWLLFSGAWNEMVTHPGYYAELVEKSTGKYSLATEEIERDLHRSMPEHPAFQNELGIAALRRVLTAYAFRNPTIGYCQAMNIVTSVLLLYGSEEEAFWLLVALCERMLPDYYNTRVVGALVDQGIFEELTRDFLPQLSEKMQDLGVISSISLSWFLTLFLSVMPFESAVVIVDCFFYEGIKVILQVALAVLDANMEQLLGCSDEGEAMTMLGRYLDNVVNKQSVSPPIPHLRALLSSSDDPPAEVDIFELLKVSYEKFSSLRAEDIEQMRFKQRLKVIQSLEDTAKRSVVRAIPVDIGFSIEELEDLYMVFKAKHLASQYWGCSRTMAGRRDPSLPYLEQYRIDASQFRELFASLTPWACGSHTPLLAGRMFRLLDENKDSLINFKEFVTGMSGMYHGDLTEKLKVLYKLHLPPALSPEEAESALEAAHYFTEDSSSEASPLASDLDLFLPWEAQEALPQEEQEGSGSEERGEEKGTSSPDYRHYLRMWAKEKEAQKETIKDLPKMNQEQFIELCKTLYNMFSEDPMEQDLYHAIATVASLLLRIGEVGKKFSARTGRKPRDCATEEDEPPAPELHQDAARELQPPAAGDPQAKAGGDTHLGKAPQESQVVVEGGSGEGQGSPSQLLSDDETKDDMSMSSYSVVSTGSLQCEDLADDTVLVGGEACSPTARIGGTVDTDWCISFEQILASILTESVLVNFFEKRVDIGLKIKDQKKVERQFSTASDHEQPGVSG

fold coimmunoprecipitated against Rab11a-WT or Rab11a-SN: ~5 fold
B1: GFP-Rab11aQ70L (natural protein, UniProt P62491 1-216, looked up)
chain: MGTRDDEYDYLFKVVLIGDSGVGKSNLLSRFTRNEFNLESKSTIGVEFATRSIQVDGKTIKAQIWDTAGLERYRAITSAYYRGAVGALLVYDIAKHLTYENVERWLKELRDHADSNIVIMLVGNKSDLRHLRAVPTDEARAFAEKNGLSFIETSALDSTNVEAAFQTILTEIYRIVSQKQMSDRRENDMSPSNNVVPIHVPPTTENKPKVQCCQNI
